The values that follow come from the DeepSol protein solubility set.

This data set in a line: soluble on expression in E. coli; label from the status in PepcDB or PDB records.
Regarding “MSKTVTIRRPSPTKTSEEPAAHQTPIFTQTAAEMLGITSLNTEAAELLEFLSREKLKEIVRLSAKWTQKSARRRMAVADVEHAIRSTRQCGGLNISSVDTLNLGIQQLQPIQGTSTGIYSFLKSSADVDVDKEDTETFIKIPRDLRVISYPLVNEGQPVQSEYTVNVDEDDGNFFEKIVPEVMTMIPEKNTPSSSTTSSLQMFRDAVKTAKIDQKVGLKPSTIEILTVEQQIFMKDIITVCMGQDDKKRHEALYTLETDAGLQVFLPHLTERICKSISANISQRCLSLIIYAGRVLRSLSHNKACDMTVTLHHVLPALLSCCVGRNMCLRPETDNHWALRDFSAKTLVGLVRDQVDKHDAGRTARRLFDFSHRIFRDTGSSFSMIYGTVHILQEFVAGPKKAAWLLTELGETNARCKSHIESGSRIGASQLSIQEAQKLNQQILKCENSIRNRYNLQQQAPGVPINRRFH”, the “soluble on expression in E. coli” value is reported as “not soluble”.

With “MPSLGEAPQDLQRSQERRRIERIFAQGGKGVASPHRFPGPLPMLQNIPTHVIAGPLGAGKTSLIRHLLSQRPAAERWAVLINEFGQIGLDAALLTRDEDGIALGEVAGGCLCCVNGAPFQVGLGRLLRKARPDRLLIEPSGLGHPAQLLKQLNEAPWKGVLAVQPCVLVLDAQALAAGKPLPRAQQDALSSAGLLVLNKDELLSDSDRLRVLEQLPDLPLFWTRHAALPLAELPGLGASAEAALEQSDIPQGLAQLPAVWSDPTLPICLSQSQEDGWSIGWRWHPSQQFDLVRVEHWLQNLDWRRAKLVLHSDQGWRSGNGLDNSPLNWLPSEWRRDSRLELIFSSPQDIAVLQASLDACRLLEHHHHHH”, the “soluble on expression in E. coli” value was “not soluble”.

Regarding “MKEFSIMIQGTISSWTEDTMSLLTVEKLGHTFGDRTLFKDVSMRLLAGEHVGLVGANGVGKSTFMNIITGQLIHDQGRVEWTPGTHYGYLDQHTVLTPGRTIRDVLADAFLPLFEKEKALNEVTEKMGTATPEELEELLEQMAEIQDALEAGGFYLLYMKIEEAARGLGIDAIGLDRDVSALSGGQRTKVLLAKLLLEQPEVLLLDEPTNYLDVEHIHWLTNYLKEYPHAFLLISHDTEFMNKCVDVIFHLEFTKMTRYTATYEKFLELAEINKNQHINAYEKQREFIKKQEDFIAKNKARYSTTGRAKSRQKQLDRMELIDRPETAIKPEFSFKESRASSRFVFEGENVEIGYTHPLLPKLSMTIERGEKIAIVGCNGVGKSTLLKTILGKIKPLSGKTSLGDFLEPAYFEQEVKADNITPIDDVWNTFPGLDQHQIRAMLAKCGLKNEHISRPLSQLSGGEQAKVRLCKLMGEESNWLLFDEPTNHLDVTAKAELKKAMKAYKGTILLVCHEPDFYEDWITKVWDVEEWSQNSK”, the “soluble on expression in E. coli” value was “not soluble”.

Turning to “MGSDKIHHHHHHMNGKTIILANPRGFCAGVDRAISIVERALEEFGAPVYVRHEVVHNKFVVDNLREKGAVFIEDLAEVPPGATLVYSAHGVSKAVQQEAAERGFRVFDATCPLVTKVHKEVARLDAQDCEIIMIGHKGHAEVEGTMGQLAPGKMLLVETVGDVAKLEVRNPDKLAYVSQTTLSVDETKDIIAALNARFPNIRNPHKEDICYATTNRQTAVKELAEQCDIVIVVGSPNSSNSNRLREVAASRGIDAYMVDNASYLQRTWFEGKSKVGVTAGASAPEVLVREVLATIRGWGHETVREGGGAEESIVFVLPKELRREGETKPDLCKR”, the “soluble on expression in E. coli” value is recorded as “not soluble”.

As to “MRMPASMEPDWKALLRVLRAHSATFYLGSLLFPKEARKGAWAVYAACRLGDEAVDGEGGGPEALEAWCSGVERAYRGRPLAEWEKGLAWALERWDIPFEAFLHMREGFQTDLGPVRLGTEAELLRYCYQVAGTVGRMMAPIAGGGKEAEARAVKLGQAMQLTNILRDVGEDLGRDRVYLPSELLKAYGVRLSDLEAGRITPEYRALMAHLEGKARALYREGLAGLGHLKVGRAAIALAALQYRGILDKLRLSGYDNLGRRAHLKAWERALLLPKAFLAARFPPRPEGSP”, the “soluble on expression in E. coli” value is given as “soluble”.

In the case of “MLPKYEQIKQDLLREIKNHTFIPGDKFYSEADIKRKYAVSSITAVKALNELTSAGYLYRIQGKGTFVSKSKVSQNVKFSDIELHSLDSEKVKVLSIEEDNQAEILKELGLPANASYYRIKRVRYSEDTPFLVHITHLPKKLVKEPLSKDLTAYASVYERVRKDFSVDLFSLASVETNEIVFPEDAELLNLLQLSFREPAVKQVKHSYLADGSVAEYIISYKHWKYFKTKIEVEAE”, the “soluble on expression in E. coli” value is given as “not soluble”.
